Measurements: patent US20090017041A1

Key:
[1] = target: oligomer-enriched preparation of the Aβ1-42 peptide (Example 16); assay: ELISA, fraction coated at 2.2 µM; assay 3; antibody dilution 1:32 (start 0.5 µg/ml)
[2] = target: monomer-enriched preparation of the Aβ1-42 peptide (Example 16); assay: as above
[3] = target: oligomer-enriched preparation of the Aβ1-42 peptide (Example 16); assay: ELISA, fraction coated at 2.2 µM; assay 3; antibody dilution 1:128 (start 0.5 µg/ml)
[4] = target: monomer-enriched preparation of the Aβ1-42 peptide (Example 16); assay: as above
[5] = target: high molecular weight (HMW) proto-fibrillar (PF) oligomer enriched preparation of the Aβ1-42 peptide (Example 15) (human); assay: ELISA, fraction coated at 2 µM; antibody 0.0078 µg/ml
Chain of high molecular weight (HMW) proto-fibrillar (PF) oligomer enriched preparation of the Aβ1-42 peptide (Example 15) (human) (peptide, as listed by the source): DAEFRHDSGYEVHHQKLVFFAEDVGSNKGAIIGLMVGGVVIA

[6] = target: oligomer-enriched preparation of the Aβ1-42 peptide (Example 16); assay: ELISA, fraction coated at 2.2 µM; assay 1; antibody dilution 1:16 (start 0.5 µg/ml)
[7] = target: monomer-enriched preparation of the Aβ1-42 peptide (Example 16); assay: as above
[8] = target: oligomer-enriched preparation of the Aβ1-42 peptide (Example 16); assay: ELISA, fraction coated at 2.2 µM; antibody dilution 1:1 (start 0.5 µg/ml)
[9] = target: monomer-enriched preparation of the Aβ1-42 peptide (Example 16); assay: as above
[10] = target: monomer-enriched preparation of the Aβ1-42 peptide (Example 16); assay: ELISA, fraction coated at 2.2 µM; assay 2; antibody dilution 1:32 (start 0.5 µg/ml)
[11] = target: oligomer-enriched preparation of the Aβ1-42 peptide (Example 16); assay: ELISA, fraction coated at 2.2 µM; assay 2; antibody dilution 1:1 (start 0.5 µg/ml)
[12] = target: monomer-enriched preparation of the Aβ1-42 peptide (Example 16); assay: as above
[13] = target: oligomer-enriched preparation of the Aβ1-42 peptide (Example 16); assay: ELISA, fraction coated at 2.2 µM; assay 3; antibody dilution 1:4 (start 0.5 µg/ml)
[14] = target: monomer-enriched preparation of the Aβ1-42 peptide (Example 16); assay: as above
[15] = target: low molecular weight (LMW) monomeric preparation of the Aβ1-42 peptide (Example 15) (human); assay: ELISA, fraction coated at 2 µM; antibody 0.0625 µg/ml
Chain of low molecular weight (LMW) monomeric preparation of the Aβ1-42 peptide (Example 15) (human) (peptide, as listed by the source): as above

[16] = target: high molecular weight (HMW) proto-fibrillar (PF) oligomer enriched preparation of the Aβ1-42 peptide (Example 15) (human); assay: as above
[17] = target: low molecular weight (LMW) monomeric preparation of the Aβ1-42 peptide (Example 15) (human); assay: ELISA, fraction coated at 2 µM; antibody 1 µg/ml
[18] = target: high molecular weight (HMW) proto-fibrillar (PF) oligomer enriched preparation of the Aβ1-42 peptide (Example 15) (human); assay: ELISA, fraction coated at 2 µM; antibody 1 µg/ml
[19] = target: oligomer-enriched preparation of the Aβ1-42 peptide (Example 16); assay: ELISA, fraction coated at 2.2 µM; assay 3; antibody dilution 1:1 (start 0.5 µg/ml)
[20] = target: monomer-enriched preparation of the Aβ1-42 peptide (Example 16); assay: as above
[21] = target: oligomer-enriched preparation of the Aβ1-42 peptide (Example 16); assay: ELISA, fraction coated at 2.2 µM; assay 1; antibody dilution 1:32 (start 0.5 µg/ml)
[22] = target: monomer-enriched preparation of the Aβ1-42 peptide (Example 16); assay: as above
[23] = target: oligomer-enriched preparation of the Aβ1-42 peptide (Example 16); assay: ELISA, fraction coated at 2.2 µM; assay 1; antibody dilution 1:8 (start 0.5 µg/ml)
[24] = target: monomer-enriched preparation of the Aβ1-42 peptide (Example 16); assay: as above
[25] = target: low molecular weight (LMW) monomeric preparation of the Aβ1-42 peptide (Example 15) (human); assay: ELISA, fraction coated at 2 µM; antibody 0.0156 µg/ml
[26] = target: high molecular weight (HMW) proto-fibrillar (PF) oligomer enriched preparation of the Aβ1-42 peptide (Example 15) (human); assay: as above
[27] = target: oligomer-enriched preparation of the Aβ1-42 peptide (Example 16); assay: ELISA, fraction coated at 2.2 µM; antibody dilution 1:8 (start 0.5 µg/ml)
[28] = target: oligomer-enriched preparation of the Aβ1-42 peptide (Example 16); assay: ELISA, fraction coated at 2.2 µM; assay 1; antibody dilution 1:2 (start 0.5 µg/ml)
[29] = target: monomer-enriched preparation of the Aβ1-42 peptide (Example 16); assay: as above
[30] = target: oligomer-enriched preparation of the Aβ1-42 peptide (Example 16); assay: ELISA, fraction coated at 2.2 µM; assay 2; antibody dilution 1:16 (start 0.5 µg/ml)
[31] = target: monomer-enriched preparation of the Aβ1-42 peptide (Example 16); assay: as above
[32] = target: oligomer-enriched preparation of the Aβ1-42 peptide (Example 16); assay: ELISA, fraction coated at 2.2 µM; antibody dilution 1:64 (start 0.5 µg/ml)
[33] = target: monomer-enriched preparation of the Aβ1-42 peptide (Example 16); assay: as above

Chain of oligomer-enriched preparation of the Aβ1-42 peptide (Example 16) (peptide, as listed by the source): as above
Chain of monomer-enriched preparation of the Aβ1-42 peptide (Example 16) (peptide, as listed by the source): as above

O.D. (405 nm) [1]: 1.4 O.D.
O.D. (405 nm) [2]: 1.54 O.D.
O.D. (405 nm) [3]: 0.66 O.D.
O.D. (405 nm) [4]: 0.86 O.D.
O.D. (405 nm) [5]: 0.116 O.D.
O.D. (405 nm) [6]: 1.78 O.D.
O.D. (405 nm) [7]: 1.78 O.D.
O.D. (405 nm), mean of 3 assays [8]: 3.64 O.D.
O.D. (405 nm), mean of 3 assays [9]: 3.83 O.D.
O.D. (405 nm) [10]: 1.34 O.D.
O.D. (405 nm) [11]: 3.67 O.D.
O.D. (405 nm) [12]: 3.77 O.D.
O.D. (405 nm) [13]: 3.64 O.D.
O.D. (405 nm) [14]: 3.52 O.D.
O.D. (405 nm) [15]: 0.574 O.D.
O.D. (405 nm) [16]: 0.544 O.D.
O.D. (405 nm) [17]: 2.68 O.D.
O.D. (405 nm) [18]: 2.55 O.D.
O.D. (405 nm) [19]: 3.89 O.D.
O.D. (405 nm) [20]: 4.04 O.D.
O.D. (405 nm) [21]: 1.27 O.D.
O.D. (405 nm) [22]: 1.18 O.D.
O.D. (405 nm) [23]: 2.73 O.D.
O.D. (405 nm) [24]: 2.67 O.D.
O.D. (405 nm) [25]: 0.207 O.D.
O.D. (405 nm) [26]: 0.201 O.D.
O.D. (405 nm), mean of 3 assays [27]: 2.98 O.D.
O.D. (405 nm) [28]: 3.39 O.D.
O.D. (405 nm) [29]: 3.3 O.D.
O.D. (405 nm) [30]: 1.92 O.D.
O.D. (405 nm) [31]: 1.94 O.D.
O.D. (405 nm), mean of 3 assays [32]: 0.92 O.D.
O.D. (405 nm), mean of 3 assays [33]: 0.94 O.D.
Substance: 6E10 control antibody
